Data: the supplement of paper PMC10126150
± gives the standard deviation of the averaged measurements.

Tested on: ATP
Assay: switch fluorescence ratio, 500 uM ATP over buffer (Cy3 cluster intensity, sum of 5 cycles each) (fold (ratio)); higher = stronger signal-on switching upon ATP binding; sequences stand for … in TCGTCGGCAGCGTCAGATGTGTATAAGAGACAGTTTTTTTTTTTTTTTTTTTTTTTTT…TC
Conditions: aptamer strand: ATP DNA aptamer (quencher-CACCTGGGGGAGTATTGCGGAGGAAGG + anchor), 100 nM annealed; ATP concentration: 500 uM
In short: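 Per cluster, summed Cy3 intensity from the target cycles was divided by that from the buffer cycles to give the fluorescence ratio, then averaged per switch-domain sequence. Clusters outside 100-1000 RFU were excluded. The Cy3-labelled switching-strand clusters, on a modified Illumina MiSeq flow-cell, were annealed to 100 nM quencher-labelled ATP aptamer and imaged in selection buffer, then after 15 min with 500 uM ATP at 22 °C, for five cycles with NaOH stripping and re-annealing between them.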
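Note: ATP exposure 15 min at 22 °C before imaging.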

Row | Sequence | switch fluorescence ratio
1 | TAGCTGGATG | 0.98618 ± 0.00039
2 | TCGACTGTTT | 1.03 ± 0.018
3 | AATGATCCAG | 0.983 ± 0.032
4 | GATAGATCAC | 1.03 ± 0.03
5 | TCGGGGAAGT | 1.04 ± 0.042
6 | ATGATGGCTT | 1.006 ± 0.0027
7 | CCTGGCAAGT | 1.87 ± 0.078
8 | GGGAGTGATG | 0.986 ± 0.019
9 | TAAAGGCCGT | 1.01 ± 0.018
10 | TGTTTTGGGA | 0.997 ± 0.021
11 | GAATATGGGT | 0.995 ± 0.015
12 | TTGTTTTCCT | 1.02 ± 0.011
13 | CGGTGGGCTA | 1.013 ± 0.0052
14 | ATGATGGAAG | 0.982 ± 0.015
15 | CTCGGGGGAT | 1.05 ± 0.1
16 | GAGAAAAACC | 1.02 ± 0.041
17 | TTTCCGGGGA | 1.18 ± 0.29
18 | ACTTTCACGG | 1.32 ± 0.044
19 | TGGGGAAAAA | 1.07 ± 0.11
20 | TACGGTCGAG | 1.1 ± 0.082
21 | ATAATCCTTG | 1.01 ± 0.005
22 | GGATGGGTGC | 0.9939 ± 0.0091
23 | CTTAGGCCAC | 0.99 ± 0.024
24 | CCTGTGGCAC | 1.21 ± 0.054
25 | CAAAAGGGAG | 1.036 ± 0.01

Row | Sequence | switch fluorescence ratio
26 | TTCACTCTTT | 1.017 ± 0.0099
27 | ATATAGGATT | 0.9893 ± 0.0068
28 | TTTTTGCTAG | 0.986 ± 0.013
29 | AGTTAGAGTG | 0.976 ± 0.016
30 | GCATCTACGG | 1.02 ± 0.019
31 | AGATCTATAC | 1.018 ± 0.0096
32 | GCATTTTGTT | 0.986 ± 0.019
33 | AGGATAAAGT | 0.9875 ± 0.0077
34 | TTACGGTCTA | 1.03 ± 0.013
35 | GGAAAGAAGG | 1 ± 0.032
36 | TTTTTTATCA | 0.98 ± 0.029
37 | AGTGTTTGCC | 1.036 ± 0.0035
38 | CGGATAGTCA | 1.042 ± 0.0078
39 | TATGGAGGGC | 1.06 ± 0.041
40 | GGAGGAGCTG | 0.95 ± 0.042
41 | TGGGTCTAGT | 0.9975 ± 0.0042
42 | GCAATCGGAG | 1.27 ± 0.025
43 | GATATGCTAC | 1.2 ± 0.023
44 | AATTGTAGGG | 0.987 ± 0.03
45 | GTTGTGAAAG | 1 ± 0.035
46 | GCGACGAGGG | 1.033 ± 0.0017
47 | GGAGGGCCTG | 0.986 ± 0.013
48 | AGGTTTTCTC | 1.02 ± 0.052
49 | GGGGTTATTA | 0.992 ± 0.017
50 | TTGACGGTGA | 1.06 ± 0.033

Row | Sequence | switch fluorescence ratio
51 | TGATCTTGGA | 1.06 ± 0.055
52 | TATTTATTGC | 1.01 ± 0.037
53 | GGTGATGGGG | 0.985 ± 0.038
54 | GGGGGATAGT | 0.998 ± 0.032
55 | TGCGGAGGTT | 1.019 ± 0.0037
56 | TCGTAGGGGA | 1.03 ± 0.025
57 | TGGCGGATAT | 1.06 ± 0.1
58 | CTTTTTGGAC | 0.994 ± 0.071
59 | GATTTGGAGT | 0.985 ± 0.018
60 | CCTATCCCTG | 1.08 ± 0.058
61 | TTTTTATGCC | 0.963 ± 0.05
62 | GTAATAATTT | 0.9982 ± 0.0034
63 | CATCGTCACG | 1.007 ± 0.0025
64 | GTGGGAGTTT | 1.01 ± 0.043
65 | TTATATATCA | 1.01 ± 0.013
66 | TTCAAGTGTA | 1.01 ± 0.022
67 | AAGGGTCTCG | 1.03 ± 0.095
68 | ATATTATTAA | 0.975 ± 0.014
69 | GTGGGTAGTG | 0.996 ± 0.038
70 | AAAACGAATG | 1.05 ± 0.065
71 | TATTTAAAGC | 0.9768 ± 0.0092
72 | TTTCTTTCTC | 1.02 ± 0.026
73 | TTAGTTTCTG | 0.984 ± 0.046
74 | TGTGTATTGG | 1 ± 0.045
75 | TGTTGTTGGG | 0.9946 ± 0.0087

Row | Sequence | switch fluorescence ratio
76 | ATTTTGGGGA | 1.005 ± 0.01
77 | CCTCCCTTTT | 2.2 ± 0.4
78 | AGAATGGGGG | 1.02 ± 0.022
79 | GGGTATTGGT | 0.996 ± 0.025
80 | TAATTAGTTT | 0.982 ± 0.015
81 | TTTCTTAGGT | 1.03 ± 0.014
82 | GTTTAGGCCC | 1 ± 0.041
83 | CTCCCTTCGA | 1.17 ± 0.036
84 | CGTGAAGTCG | 0.954 ± 0.025
85 | TATTGACAGA | 1.022 ± 0.0053
86 | CGTTAATAGC | 1.14 ± 0.019
87 | GCCGGGGCAA | 1.33 ± 0.024
88 | ACCCACTGGG | 1.06 ± 0.03
89 | AGCAGGAGGG | 1.022 ± 0.0081
90 | GGGATCAGTG | 0.995 ± 0.03
91 | TTTTGGACGC | 1.26 ± 0.43
92 | AAACTTAGCA | 1.02 ± 0.012
93 | GGCAGTTTGG | 1.01 ± 0.023
94 | TCGTATTCGG | 0.992 ± 0.025
95 | GATTGGGTGT | 1.03 ± 0.054
96 | TAAAGGGGCA | 1 ± 0.028
97 | TTGCTCTGGA | 1.02 ± 0.015
98 | CGTTAGATTG | 0.998 ± 0.051
99 | CAGTCCTGTA | 1 ± 0.042
100 | TTCTGTGGGT | 0.955 ± 0.057

Row | Sequence | switch fluorescence ratio
101 | TAGCTGTTTT | 1.02 ± 0.02
102 | GGTTTAAGAT | 1.0263 ± 0.00079
103 | TTAGTCAATT | 0.97 ± 0.0044
104 | AGGGAGGAGG | 0.971 ± 0.024
105 | ATATGGGGAC | 1.01 ± 0.024
106 | GTATGGTAGG | 1.03 ± 0.05
107 | TTTGTATGGA | 0.973 ± 0.011
108 | TTTTTCCTTT | 1.02 ± 0.033
109 | TTTTGTTTGT | 1.01 ± 0.037
110 | CGGCGCACAG | 1.31 ± 0.051
111 | TTACTTGGGT | 1.02 ± 0.052
112 | GGGTAATGGC | 0.971 ± 0.014
113 | GGTGTTTGCT | 0.965 ± 0.022
114 | GAGTTCGAGG | 1.02 ± 0.037
115 | AGGGGTAAAA | 1 ± 0.014
116 | AAGGCGGATT | 1.26 ± 0.36
117 | TCGAAGGGGG | 1.1 ± 0.16
118 | AATTTAGTAT | 0.996 ± 0.022
119 | GGACTTTTCA | 0.96 ± 0.014
120 | AAAGTTGCTA | 0.985 ± 0.019
121 | TATGAAATAG | 0.99 ± 0.034
122 | AGTCGGGGGC | 1.03 ± 0.04
123 | AGCATAGTCG | 1.04 ± 0.029
124 | GAGGCGCAGT | 0.9988 ± 0.0024
125 | GCTACAGGGG | 1.18 ± 0.25

Row | Sequence | switch fluorescence ratio
126 | TATTATTGGG | 1 ± 0.0054
127 | TTTTTAATGT | 0.998 ± 0.062
128 | TCGAGAGGGA | 1 ± 0.047
129 | TGTGGGGGCA | 0.9953 ± 0.0057
130 | GTGTTGATTT | 0.9625 ± 0.0065
131 | AGGCGTAAGG | 1.03 ± 0.015
132 | CAGCTCGGTC | 0.9687 ± 0.0082
133 | TAGTGGGGCC | 1.01 ± 0.019
134 | GGGTGTTAGA | 1 ± 0.014
135 | TTACGTGTCG | 1.01 ± 0.068
136 | GCACGGACAT | 1.4 ± 0.031
137 | CAAATTTGCT | 0.967 ± 0.022
138 | TAATTCGTAC | 1.07 ± 0.078
139 | TTAAAAGTAG | 1 ± 0.058
140 | GGAATCTTTT | 1.08 ± 0.085
141 | CGATTCGAGT | 0.967 ± 0.016
142 | GACGGGGTGG | 1.01 ± 0.059
143 | ATCGCGGGCA | 1.02 ± 0.027
144 | AACGACTATG | 1.05 ± 0.029
145 | CATAGGGTTC | 0.9954 ± 0.0089
146 | TCGCTTGGCC | 1.03 ± 0.04
147 | TCCAAGAGGG | 1.01 ± 0.031
148 | AAGTAGTCCC | 1.3 ± 0.39
149 | TTATGAATAT | 0.9824 ± 0.005
150 | GGTCAGGCGA | 0.989 ± 0.016

Row | Sequence | switch fluorescence ratio
151 | GCTATTCGAC | 1.16 ± 0.022
152 | TTGTATTGGT | 1.04 ± 0.11
153 | AAGATTGCTT | 0.9874 ± 0.0032
154 | ATAGTAGTGG | 1.003 ± 0.0081
155 | CTCATAATTT | 0.993 ± 0.037
156 | TCTGATTTGG | 0.978 ± 0.028
157 | TAGTCGGGGA | 1.03 ± 0.059
158 | AGTTGGTTAC | 1.01 ± 0.023
159 | ATATACGAGT | 1.002 ± 0.005
160 | TTTAAAAGGG | 1 ± 0.027
161 | TTTGCGGAAA | 1.01 ± 0.023
162 | TGTAAGAAAA | 0.985 ± 0.052
163 | ACTGAGTTTG | 1 ± 0.016
164 | TCGTTATTCT | 1.04 ± 0.067
165 | GCAGGGTTCT | 0.9721 ± 0.0021
166 | TCGAGAATGT | 0.984 ± 0.014
167 | CCCACAGGAC | 1.73 ± 0.14
168 | ATTATAACAG | 1.038 ± 0.009
169 | TTAGGGTGTA | 1.01 ± 0.046
170 | GGTTTGGGTT | 0.998 ± 0.037
171 | ACTGGGGGGT | 0.994 ± 0.02
172 | TAATAGGGTT | 1.01 ± 0.027
173 | TATGATTTTG | 0.993 ± 0.02
174 | AAACTAGCTG | 1 ± 0.025
175 | TATTAGGGGT | 1.01 ± 0.023

Row | Sequence | switch fluorescence ratio
176 | CCAGGGGCTG | 1.67 ± 0.89
177 | TTATTGGTAA | 1.0091 ± 0.00034
178 | CACGAGTTGG | 1.014 ± 0.0049
179 | ACTTTGGCGG | 0.981 ± 0.044
180 | TTGTCATTTA | 0.992 ± 0.031
181 | TCTCTTGCGG | 1.1 ± 0.2
182 | AGTGCGGGTT | 1.02 ± 0.025
183 | ATTGCGGGTA | 0.992 ± 0.042
184 | AATTTTTTTT | 1.01 ± 0.043
185 | CGTATGGGTG | 1.02 ± 0.04
186 | TCATAAACTT | 1.09 ± 0.058
187 | TTGGTTATAC | 1.12 ± 0.046
188 | GAACGGCCGG | 1.004 ± 0.0092
189 | GAAGGAGTGC | 1.07 ± 0.018
190 | TTTGTCTAGG | 0.994 ± 0.019
191 | ATGAGGAGGT | 0.979 ± 0.0036
192 | CTAGTATGTT | 0.979 ± 0.02
193 | AACCAGGGGC | 1.37 ± 0.091
194 | AGGAGATGGG | 1.02 ± 0.034
195 | TCAGCAGGTT | 2.85 ± 2.2
196 | TTGGTTTGGC | 1.01 ± 0.019
197 | TGAGCGGGTG | 1.01 ± 0.01
198 | CTGGAAGGTG | 1.811 ± 0.017
199 | GAAAGAGAGT | 0.987 ± 0.023
200 | TTGGCATCCT | 1.0176 ± 0.00051
